EP4653869A1 (Nantes Université, dated 2025)

T1: recombinant human interleukin-34 (IL-34) (human, UniProt Q6ZMJ4 21-242)
T1 construct: Bought recombinant protein; also called hIL34
T1 sequence (looked up): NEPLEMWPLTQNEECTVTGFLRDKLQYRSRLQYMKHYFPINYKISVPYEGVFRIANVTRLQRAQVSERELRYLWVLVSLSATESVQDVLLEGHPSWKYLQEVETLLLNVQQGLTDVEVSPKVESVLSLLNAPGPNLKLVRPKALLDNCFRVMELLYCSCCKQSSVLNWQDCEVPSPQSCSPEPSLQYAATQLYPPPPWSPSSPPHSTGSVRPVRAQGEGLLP

B1: recombinant human bone morphogenetic protein 7 (BMP-7) (ligand, UniProt P18075 293-431, looked up)
chain: STGSKQRSQNRSKTPKNQEALRMANVAENSSSDQRQACKKHELYVSFRDLGWQDWIIAPEGYAAYYCEGECAFPLNSYMNATNHAIVQTLVHFINPETVPKPCCAPTQLNAISVLYFDDSSNVILKKYRNMVVRACGCH
notes: Immobilized on a CM5 chip by amine coupling in the SPR assay
B2: recombinant human bone morphogenetic protein 4 (BMP-4) (ligand, UniProt P12644 293-408, looked up)
chain: SPKHHSQRARKKNKNCRRHSLYVDFSDVGWNDWIVAPPGYQAFYCHGDCPFPLADHLNSTNHAIVQTLVNSVNSSIPKACCVPTELSAISMLYLDEYDKVVLKNYQEMVVEGCGCR
notes: as for B1
B3: recombinant human bone morphogenetic protein 2 (BMP-2) (ligand, UniProt P12643 283-396, looked up)
chain: QAKHKQRKRLKSSCKRHPLYVDFSDVGWNDWIVAPPGYHAFYCHGECPFPLADHLNSTNHAIVQTLVNSVNSKIPKACCVPTELSAISMLYLDENEKVVLKNYQDMVVEGCGCR
notes: as for B1

Target: T1, recombinant human interleukin-34 (IL-34)
Assay: SPR (Biacore T200), BMP immobilized on CM5 chip, IL-34 as analyte, single cycle titration, bivalent fitting model

Kd [nM] | koff [s⁻¹] | kon [M⁻¹ s⁻¹] | Binder
922 | 0.0561 | 60800 | B1
426 | 0.0467 | 110000 | B2
363 | 0.0229 | 63100 | B3
